B1: GlpE (Escherichia coli K-12) (protein)
chain: MDQFECINVADAHQKLQEKEAVLVDIRDPQSFAMGHAVQAFHLTNDTLGAFMRDNDFDTPVMVMCYHGNSSKGAAQYLLQQGYDVVYSIDGGFEAWQRQFPAEVAYGA
notes: intact gene (324 bp), C-terminal His6 tag kept, pET30a, E. coli BL21(DE3); Ni-NTA and Superdex 200
B2: ΔNS-PspE (Escherichia coli K-12) (protein)
chain: AEHWIDVRVPEQYQQEHVQGAINIPLKEVKERIATAVPDKNDTVKVYCNAGRQSGQAKEILSEMGYTHVENAGGLKDIAMPKVKG
notes: Ni-NTA and Superdex 200

Substrate: O=S(O)(O)=S
Assay: purified protein
Type: biochemical, Escherichia coli
Settings: 100 mM GSH fixed, 0.4 mM lead acetate, 100 mM HEPES pH 7.4, 37 °C

Protein | Km [mM] | kcat [s⁻¹] | kcat/Km [M⁻¹ s⁻¹]
B1 | 33.6 ± 7.0 | 0.02 | 0.7
B2 | 7.8 ± 1.6 | 0.04 | 4.8
